Results on 2 substances are retold here after paper PMC9293896.

Experiment [1] deals with OTR A318G, N-terminal SNAP-tag (human) (UniProt P30559). The experiment in a line: AlphaScreen or HTRF; whole-cell saturation binding; SNAP-tagged receptor on transfected HEK293T/17 cells labelled with SNAP-Lumi4-Tb; concentration range of HiLyte Fluor 488-Orn8 oxytocin, 1 h at room temperature in 20 mM Hepes pH 7.5, 100 mM KCl, 3 mM MgCl2, 0.05% BSA; nonspecific binding with 1000-fold excess of unlabelled oxytocin; one-site saturation fit.

Experiment [2] concerns the target OTR-D153Y, N-terminal SNAP-tag (human) (UniProt P30559). The experiment is described as above.
The target of experiment [3] is T1, truncated V1AR (residues 1-378 with C-terminal mutation T378K), N-terminal SNAP-tag (human) (UniProt P37288).
T1 sequence: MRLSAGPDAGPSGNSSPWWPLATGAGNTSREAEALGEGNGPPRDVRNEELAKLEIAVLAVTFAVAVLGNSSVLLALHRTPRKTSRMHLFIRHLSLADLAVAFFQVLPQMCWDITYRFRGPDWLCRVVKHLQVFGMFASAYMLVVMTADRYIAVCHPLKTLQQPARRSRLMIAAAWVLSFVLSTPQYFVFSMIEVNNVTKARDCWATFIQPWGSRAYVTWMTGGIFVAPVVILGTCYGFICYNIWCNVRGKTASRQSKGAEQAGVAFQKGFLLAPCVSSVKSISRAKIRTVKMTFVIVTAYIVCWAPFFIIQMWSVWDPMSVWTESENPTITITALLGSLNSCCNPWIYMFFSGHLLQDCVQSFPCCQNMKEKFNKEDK
Described as above.

Experiment [4] addresses T2, truncated V1AR (residues 1-378, T378K) G337A, N-terminal SNAP-tag (human) (UniProt P37288).
T2 sequence: T1 sequence with G337A
The description is as above.

Experiment [5] addresses wild-type human oxytocin receptor, full length, N-terminal SNAP-tag (human) (UniProt P30559). Described as above.
In experiment [6] the target is OTR A318G, N-terminal SNAP-tag (human) (UniProt P30559).
Experiment [7] deals with OTR F175A, N-terminal SNAP-tag (human) (UniProt P30559).
Experiment [8] concerns the target OTR F291A, N-terminal SNAP-tag (human) (UniProt P30559).
Experiment [9] has as its target OTR F292A, N-terminal SNAP-tag (human) (UniProt P30559).
Experiment [10] has as its target OTR I201A, N-terminal SNAP-tag (human) (UniProt P30559).
For experiment [11], the target named is OTR K116A, N-terminal SNAP-tag (human) (UniProt P30559).
In experiment [12] the target is OTR L316A, N-terminal SNAP-tag (human) (UniProt P30559).
The target of experiment [13] is OTR Q119A, N-terminal SNAP-tag (human) (UniProt P30559).
In experiment [14] the target is OTR Q171A, N-terminal SNAP-tag (human) (UniProt P30559).
The target in experiment [15] is OTR Q171N, N-terminal SNAP-tag (human) (UniProt P30559).
The target of experiment [16] is OTR Q295A, N-terminal SNAP-tag (human) (UniProt P30559).
Experiment [17] deals with OTR Q92A, N-terminal SNAP-tag (human) (UniProt P30559).
For experiment [18], the target named is OTR Q96A, N-terminal SNAP-tag (human) (UniProt P30559).
In experiment [19] the target is OTR W188A, N-terminal SNAP-tag (human) (UniProt P30559).
For experiment [20], the target named is OTR-D153Y, N-terminal SNAP-tag (human) (UniProt P30559).
Experiment [21] has as its target T1, truncated V1AR (residues 1-378 with C-terminal mutation T378K), N-terminal SNAP-tag (human).
The target of experiment [22] is T2, truncated V1AR (residues 1-378, T378K) G337A, N-terminal SNAP-tag (human).
In experiment [23] the target is wild-type human oxytocin receptor, full length, N-terminal SNAP-tag (human) (UniProt P30559).

A word on the Kd: it is the constant that tells how readily two partners part at equilibrium. The low end stands for tighter binding, the high end for weaker binding.

Substitutions are numbered along the chain they refer to.

oxytocin, sequence (P01178 whole entry, looked up): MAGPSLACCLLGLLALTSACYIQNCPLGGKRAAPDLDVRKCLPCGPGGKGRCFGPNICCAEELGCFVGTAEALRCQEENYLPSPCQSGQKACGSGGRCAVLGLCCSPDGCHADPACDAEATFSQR

In the case of “HiLyte Fluor 488-Orn^8 oxytocin (from UniProt P01178 20-28) (peptide)”, the Kd was 0.9 nM in experiment [1]; 6.4 nM in experiment [2]; 9.3 nM in [3]; 20.9 nM in experiment [4]; 1.4 nM in experiment [5].
As for “oxytocin (from UniProt P01178 20-28) (peptide)”, the OT-induced IP1 accumulation (HTRF IP-One) in transfected HEK293T cells, EC50 turned out to be 4.6 nM in [6]; 3480 nM in experiment [7]; 542 nM in experiment [8]; 6.1 nM in experiment [9]; 89.5 nM in experiment [10]; 6.1 nM in [11]. For the same substance, the OT-induced IP1 accumulation (HTRF IP-One) in transfected HEK293T cells, EC50 was found to be 21.9 nM in experiment [12]; 444 nM in [13]; 992 nM in [14]; 39.1 nM in experiment [15]; 51.3 nM in [16]; 222 nM in [17]. Further, the OT-induced IP1 accumulation (HTRF IP-One) in transfected HEK293T cells, EC50 in [18] was found to be 1540 nM; in experiment [19], 156 nM; in experiment [20] it was 42.9 nM; in experiment [21], 158 nM; in [22] it was 250 nM; in [23] it was 8.4 nM.
